Measured values reported in the DeepSol protein solubility set.

assay: soluble on expression in E. coli; label from the status in PepcDB or PDB records

Row | Sequence | soluble on expression in E. coli
1 | MSLIELWPAIDLIGSTSVRLTEGKYDSEEKMSRSAEESIAYYSQFECVNRIHIVDLIGAKAQYAREFDYIKSLRRLTTKDIEVGGGIRTKSQIMDYFAAGINYCIVGTKGIQDTDWLKEMAHTFPGRIYLSVDAYGEDIKVNGWEEDTELNLFSFVRQLSDIPLGGIIYTDIAKDGKMSGPNFELTGQLVKATTIPVIASGGIRHQQDIQRLASLNVHAAIIGKAAHQASFWEGLEEGHHHHHH | soluble
2 | MSSDRSGAAAKASAGQCSSDRPLAVAADPKQYSMALCPDTPSYSLCGRLKSEWDKQSAAASPGPAAYDVPGYFDTLDPQQQQRHLWSGPVPGVHLGIRTVLPESREKAGVPGPGAYQLVRFGDELPRAREPLITRSSRRGRGAAADTPGPGAYDDPTSIAYRADQVRRKRLFTQCSTFGGRWCRREFHTAGPGPAAYNTLVATKLLEKNQRHAPRLVRRQPPLDRQSVAEAAAARMKVSGPPNPQAFPTLPSDFDFDFRKGKTIGGKPHEPLARTAPSHLTQAADDKPSGSRAFWESPPPPGGRFAATPFDPQSHSLAAEKAGTNAARLAEAGNCKPGPGSYNVEVDPTARRVPASLFGRTLSAKSVSVENGVPGPGHYRVVDDTSGRGTIFYKGDFHPRGCSGQGGSAAESLGVGPGAHYNDDTMYSNSINGDRAHNKGFTMGIRYPARATYQHCAPYDETTNINCVYDDELNWVVRPNQHLPLIRRGKL | not soluble
3 | MDEEERTSSRGWMREFKYPSNLRDITEEARISLSSVAHFDELLHESSELAWRTNMSPPHRALFTFSKKTDISYVMLFLDYSRDESYCPQEVRIDLGDGTNDWWLKMYRRVDQPKGWVKIPIHDAFGNPLRVMSLQMTIMKNHEKGRDCVVRHFRVLGPFRSRYDSMNRMILGPSAVLEARPGTEPIKDAIMNHYQSMR | not soluble
4 | MGSDKIHHHHHHMNWDNARFFLALARTGTLRGAAAQLNVDQATVGRRIAALEDELSARLFLRTPALYVLTTAGEALLEPAETMERASLTIERRVMGLDEQLAGTVRIATTDSLGKRFVIPAIARLRRRHAGIDVVCVTSTEIANLTRREADLAIRTLRPESPDLIVRRLGHLETGIYASRHYLAERGEPVAGSAFDGHDLVMYQQPVMPTMWDALCGEPTSRGRVMFQTSSTMMLVEAALAGLGIAELPCFRAEAEPELVRLMARRCNHFDVWLVAHADLYKTARVQAVIEAVVEEFATAAPSTR | not soluble
5 | RSDSMILMTVNPKTKKTTMMSLERDILTRIESGNGQAHEAKLNSAYADGGAELAIETIQKMMNIHIDRYVMVNMRGLQKLVDAVGGITVNNILGFPISISDQEEFNTISIGVGEQHIGGEEALVYARMRYQDPEGDYGRQKRQREVIQKVMEKALS | not soluble
6 | MRDTLVLNASFEPLSTVTLNRAVILVLQDKAVVEQAHPELRMRGAALDIPVPRVIRLCRYVRVPFRRQAPWSRRGVLVRDRHRCAYCGRRATTVDHVVPRAQGGQDSWLNTVASCAEDNHRKAARTPEQAGMPLLRQPFEPTPADAMLLALGQDDFESLPEWLAQPAALEHHHHHH | not soluble
7 | MDIAQDWNGIPVPANPGNGMTWQLQDNVSDSFNYTSSEGNRPTAFTSKWKPSYINGWTGPGSTIFNAPQAWTNGSQLAIQAQPAGNGKSYNGIITSKNKIQYPVYMEIKAKIMDQVLANAFWTLTDDETQEIDIMEGYGSDRGGTWFAQRMHLSHHTFIRNPFTDYQPMGDATWYYNGGTPWRSAYHRYGCYWKDPFTLEYYIDGVKVRTVTRAEIDPNNHLGGTGLNQATNIIIDCENQTDWRPAATQEELADDSKNIFWVDWIRVYKPVAVSGGGNNSLEHHHHHH | soluble
8 | SQTVHFQGNPVTVANSIPQAGSKAQTFTLVAKDLSDVTLGQFAGKRKVLNIFPSIDTGVSAASVRKFNQLATEIDNTVVLCISADLPFAQSRFCGAEGLNNVITLSTFRNAEFLQAYGVAIADGPLKGLAARAVVVIDENDNVIFSQLVDEITTEPDYEAALAVLKA | soluble
9 | DVSGTVCLSALPPEATDTLNLIASDGPFPYSQDGVTFQNRESVLPTQSYGYYHEYTVITPGARTRGTRRIITGEATQEDYYTGDHYATFSLIDQTC | soluble
10 | MSLGDGNVEVAIIAYPYMSNFNEFYALVKSNARVSFVRKPKETAKADLVILPGSRNTLESLKWLVENGFVEQLRQRSMNILGICGGFQILGKKIVDPYGIEAGYPTEYEGLGIFDINVHYSKDKVVSMTTGISEYGEMNGYEIRRGVIKYMGEKPLLKITLRNGEKVSVEDGAKKDNIIGISVHGTLFSDGMKKLLKEFNINIHSQSMEEGHHHHHH | soluble
11 | MSLCDRSEVGDVSLGMFTLKDIKINNLTDPVVTGVTCHVASIEADLSLADPSDSSISCRQTGEITPEMIAQIDKSSSGEVVFQKSKSIFFKSMKIRRIFDAKNQTLMYLSYSTKETSGSFKHSLSTVPLWGTQAYNAFPETQNKEGHHHHHH | soluble
12 | MSLDKKPVTTRKKVKVTGTETYINQSTGEIKEMQVIDIEERDFNFHKVWLEHIIHSMDLIGNQKTRLAFWLINNLNRDNVLIMTQRKIAEKTGISLETVRQTMKALMESGFLIKINSGAYCVNPDAVFKGGKTDRLNVLIQYRKSEQENTKTSEPTSEKDEPSLFNNEQLKAMEGHHHHHH | soluble
13 | MGSDKIHHHHHHVEQAQLDEYLDRFQLTDVFAGGLREHLQPVAFQAGDWLCRQGDAADRMYLLLEGKLKITHMSATGKRLVLSFKHPFDLVGDIEYVRRTPLMNTVEAVTPVKAVSISYAALEQKGADNPALLRFLLETITMKFELKSHSMSFNLLYPVEVRLASYLLSMTPETPTLPVSDLVDAADLIGTSYRHLNRVLRQFSQDNLIERTNRTITIIDREGLTERVGESIYE | not soluble
14 | MNAFFTRALKPGARPLDETPGAILCPADGAVSQLGPIEHGRIFQAKGHGFSAQELLGGDPAMAAPFMGGEFATIYLSPKDYHRVHMPLAGTLREMVYVPGRLFSVNQTTAENVPELFARNERVVCLFDTERGPMAVVLVGAMIVASIETVWAGLVTPPKRELKTFRYDEASRTPIHLEKGAELGRFKLGSTAIVLFGPEQVKWAESLGAGSAVRMGQQLAAPAQALEHHHHHH | not soluble
15 | MGSDKIHHHHHHMKTSKKWIAHFEANALHQRINWDLFPAITEAETASVLSSLQAWQLGETSDGAHLIHASTLYASHIGDLDYIDAVKLFIKEEQKHGNNLGRYLDVIDKPRIKKDWGDSLFRKIRYFNTNMEIWTLAVITVESAAQVFYQCLKNATECTLLRQICTDILIDEAYHIDFQTERMTILFNKKSVLSRCLSRIMYPVFFFSTSLLVWSAHKKLFKAGGIDFKKYMNKMKYKYFKTLHRIALVCSRKSTLIHSALH | not soluble
16 | MTRSRLKIDRHGKEEDAMDLIDTHQHLILRGKLGYAWTRGEPSLAGSFTRADYAALVEGSGVIGTIFMETGVDDGDYRAEARLVAGMVGEGTLPMFGQIASCRPETDQGFDAWLEECRHLKVVGFRRILQVMPDDTSRAENYRRNVRKIGKAGWPVDLCFHSRQLAIAAELVRACPDVRFMLDHCGTPDIAGNDFPAWSERMADLASLPNLFVKLSGVTAYCAPGQVTLESVRPYVETVLKLFGPARMVWGGDWPVVDLGSGLPEWIAMTREFLSTLSPDEQASIGHGNARRFYLATLEHHHHHH | not soluble
17 | MKNDRTLQAIGRQLKAMGCERFDIGVRDATTGQMMNREWSAAEVLQNTPWLKRMNAQGNDVYIRPAEQERHGLVLVDDLSEFDLDDMKAEGREPALVVETSPKNYQAWVKVADAAGGELRGQIARTLASEYDADPASADSRHYGRLAGFTNRKDKHTTRAGYQPWVLLRESKGKTATAGPALVQQAGQQIEQAQRQQEKARRLASLELPERQLSRHRRTALDEYRSEMAGLVKRFGDDLSKCDFIAAQKLASRGRSAEEIGKAMAEASPALAERKPGHEADYIERTVSKVMGLPSVQLARAELARAPAPRQRGMDRGGPDFSM | soluble
18 | MSLTSKMMAFLPYFLELKGKRVNIQALINDRVSQAIEAAGAPAGTPALVRQSAKAQFGDYQANGIMGAAKQLGTNPREFAQKVLDVLNLEGIASKTEIAGPGFINIFLSEEFLAAQAEAALADARLGVAQEAPKTIVADYSAPNVAKEMHVGHLRSTIIGDAVVRTLEFLGHKVIRANHIGDWGTQFGMLIANLERVQKASGEVSMELSDLEAFYRESKKLYDEDEQFAETARNYVVKLQGGDPFCLEMWKKLVDVTMIQNQRNYDRLNVSLTRENVMGESMYNDMLPQIVSDLKAKGLAVEDDGAQVVFLEEFKNKDGEPMGVIIQKRDGGFLYTTTDIACAKYRYETLGADRVLYFIDSRQHQHLMQAWTIVRKAGYIPENVSLEHHAFGMMLGKDGRPFKTRAGGTVRLADLLDEAQERAKALIESKNPELSAEEKANIANTVAMAAVKYADLSKHRTTDYVFDWDNMLAFEGNTAPYMQYAYTRVASVFAKAGVDMNELTGHIQITEEKEKALIAKLLQFEEAVQSVAREGQPHIMCSYLFELAGIFSSFYEACPILVAEQESIKQSRLKLAALTAKTIKQGLALLGIDTLERMEGHHHHHH | soluble
19 | MKIDYVSDLHINHWIPWNVNQIKWEKRTREIVNRLISNGNGEVLVIAGDFTEWNQQTLWVLDEAAKQYEKVYFTYGNHDLYLLSKSQKRKYSDSLGRLNDLIQKAADMKNVTPLIKTTETYKGKVFAGDVMWYLPKGIEGWDFFKGVSNDSNYIWLNGYNKVDGVRAMWKESMDWYETLENTQVDVFVSHVPPVHNPYSPFEPNTCYMVDVPFINAKHWVCGHDHLQAEFDKDGTSFHMNCIGYPYDYDNYPSVNVIPGEEVDSYKTFELKTFEIMAGDPLEHHHHHH | not soluble
20 | MSLRDAKTWFTDTVLKDQNGRELRFYSDVLKDKVVMLNVIFTHCTDACPLITRKLREVREAMGPALAAQVTFVSISSDPLNDTPEALKAFAAKQGVDGPNWLFLTGDKANVDLVLGRIGQFLPSPEQHSTQLIAGDVAGKRWSKIRPDAPPAAIAQRMQLLTQPLAGREGHHHHHH | soluble
21 | MNTEEQPVTASLVAEAQRLDFLPTYFGPRLMMRGEALVYAWMRRLCERYNGAYWHYYALSDGGFYMAPDLAGRLEIEVNGNGFRGELSADAAGIVATLFALGQLAAEIADTDAADALIDRYHFLRGFAAGHPEAAAIYRAID | soluble
22 | MDQKEAPSFTEASVHDPSVIKVEDTFYVFGSHLAAAKTEDLRNWTQIATHVHEGNPLIPNVFVELAEAFEWANSNTLWAADVIQLEDGRFYMYYNACQGDAPRSALGVAVADDIEGPYENLGVFLKSGMWGEESPDGTIYDANVHPNAIDPHVFFDEEGKLWMVYGSYSGGIFILEMDPDTGFPLPGQGYGTHLMGGNHSRIEAPYIHYDKETEYYYLYVTFGGLDSTGGYNMRVARSKQPDGPYVDGEGHLMSEVRGAPGTLFDDASIEPYGVKQMGNFLFKRELGERGTGYVSPGHNSVYYDDEVDKIFLFFHTRFPERGEAHEIRVHQMFMNRKGWPVIAPYRYTGESLEKVKAKEVIGDYQWINHGKEISAEIKESVTVRLEKNHKVLGDVTGKWKKVGDYHVELQIDGETYYGVFLRQWDPVAEREVMTFTALSEEGIAIWGSQLEEKTDNEIVDAVYDDLTLEGTIISDVELPTRGMRQTTIAWSSSHEEVLSSSGKVNRPEIGEDDVVVSLTATISKGSAERIKTFELVVPGQTEGGLVAHYPLNGTLENAVDDARFGSGTVTGNRIDNPGGTIAFEQGIDGEAAVFDGTTGIRLPNGLISRNTYTVSFWLNPEQLTEFTTAFFAARSEHHWLSFVPRGHSGMNHDTMLWAGSAQWYDAGTGVKLPVGEWSHVAFSVDNGEIVIYLNGEERFRGENFPNLFTTPNAYFALGVNHWDAPFQGMIDELRIYDGVALTREEIVHLAKQKLEHHHHHH | soluble
